Data reported in the Human Domainome abundance scans (Beltran et al. 2025).

B1: Kinesin-like protein KIF16B, residues 1213 to 1273; numbered along this chain, Q96L93 (parent)
chain: ETWTVFRRYSRFREMHKTLKLKYAELAALEFPPKKLFGNKDERVIAERRSHLEKYLRDFFS

Variants of: B1
Test: abundance fitness (aPCA) (normalised: wild type 0, dead -1); higher = more abundant; growth selection in yeast, the domain comes from the species named
Settings: Homo sapiens

Abundance fitness, by site and new letter:
R48: W 0.275, M 0.159, K -0.061, G 0.108, D -0.186, E -0.374, Y -0.266, P 0.113, F 0.087, I 0.123, C -0.148, V -0.05, S -0.018, T -0.363, Q -0.291
E53: Y 0.329, T 0.317, L 0.352, G 0.426, A 0.191, I 0.197, M 0.309, P 0.228, N 0.292, K 0.391, V 0.277, F 0.243, H 0.059, R 0.412, W 0.378, C 0.31, S 0.414
Y55: R 0.396, N -0.249, L 0.182, K 0.481, S 0.12, A -0.007, P -0.19, M 0.185, V -0.082, D -0.613, W 0.281, C 0.265, G 0.021, E -0.942, H -0.116
S50: F -0.117, Y -0.66, L -0.042, Q -0.545, W 0.117, K -0.133, G -0.1, P 0.045, N 0.05, D -0.11, V -0.36, C 0.256, E -0.696, R -0.301, A -0.213, T -0.056, H -0.039
A46: W -0.176, P 0.256, Y -0.262, S 0.147, L -0.324, V -0.057, M -0.073, Q -0.03, R 0.131, T 0.242
L52: A -0.201, T -0.363, S -0.647, H -0.123, I -0.092, R -0.473, W 0.217, K -0.184, V 0.058, F 0.048, G -0.149, Q -0.866, P 0.175, N -0.642, M -0.131
K54: E -0.298, G -0.171, R 0.076, I -0.314, T -0.013, P -0.945, S -0.174, W -0.476, C -0.785, F -0.664, A -0.251, H -0.532, V -0.289, L -0.256, N -0.127, D -0.489, M -0.327
H51: A 0.043, Y -0.235, L -0.098, N -0.436, W -0.069, C -0.359, M -0.368, K 0.376, R 0.194, Q 0.002, S -0.047, P -0.164, I -0.294, D -0.778, G 0.248, E -0.379
R49: L 0.279, C 0.247, Q -0.201, W -0.064, G -0.01, I 0.367, V -0.41, S -0.145, A -0.166, Y -0.68, K 0.504, M -0.477, T -0.286, P -0.273
E47: P 0.118, A -0.307, S 0.091, I -0.2, W 0.014, G 0.243, F 0.117, M -0.053, C 0.038, V -0.173, Q -0.175, Y -0.223, T 0.132, R 0.099, K -0.011, D 0.183, N 0.099, L -0.274, H 0.129
L56: P -0.308, Q 0.163, K -0.567, R -0.584, D -0.343, N -0.518, I -0.011, M -0.191, T -0.001, E -1.2, S -0.453, C 0.032
